Counter-ions that a name gives are not always drawn.
B1: Chimera 118-194: CYP102A1 heme domain with residues 118-194 from CYP102A2 (protein)
chain: TIKEMPQPKTFGELKNLPLLNTDKPVQALMKIADELGEIFKFEAPGRVTRYLSSQRLIKEACDESRFDKNLSQALKFVRDFAGDGLATSWTHEKNWKKAHNILLPSFSQQAMKGYHAKMVDIAVQLIQKWARLNPNEAVDVPGDMTRLTLDTIGLCGFNYRFNSYYRETPHPFINSMVRALDEAMHQMQRLDVQDPAYDENKRQFQEDIKVMNDLVDKIIADRKASGEQSDDLLTHMLNGKDPETGEPLDDENIRYQIITFLIAGHETTSGLLSFALYFLVKNPHVLQKAAEEAARVLVDPVPSYKQVKQLKYVGMVLNEALRLWPTAPAFSLYAKEDTVLGGEYPLEKGDELMVLIPQLHRDKTIWGDDVEEFRPERFENPSAIPQHAFKPFGNGQRACIGQQFALHEATLVLGMMLKHFDFEDHTNYELDIKETLTLKPEGFVVKAKSKKIPLGGIPSPST
modifications: Chimeric Cytochrome P450 heme group sequence from Bacillus megaterium and Bacillus subtilis
notes: CYP102A1 heme domain with residues 118-194 from CYP102A2
B2: Chimera 50-140: CYP102A1 heme domain with residues 50-140 from CYP102A2 (protein)
chain: TIKEMPQPKTFGELKNLPLLNTDKPVQALMKIADELGEIFKFEAPGRVTIVVSGHELVKEVCDEERFDKSIEGALEKVRAFSGDGLATSWTHEPNWRKAHNILMPTFSQRAMKDYHEKMVDIAVQLIQKWARLNPNEAVDVPEDMTRLTLDTIGLCGFNYRFNSFYRDQPHPFITSMVRALDEAMNKLQRANPDDPAYDENKRQFQEDIKVMNDLVDKIIADRKASGEQSDDLLTHMLNGKDPETGEPLDDENIRYQIITFLIAGHETTSGLLSFALYFLVKNPHVLQKAAEEAARVLVDPVPSYKQVKQLKYVGMVLNEALRLWPTAPAFSLYAKEDTVLGGEYPLEKGDELMVLIPQLHRDKTIWGDDVEEFRPERFENPSAIPQHAFKPFGNGQRACIGQQFALHEATLVLGMMLKHFDFEDHTNYELDIKETLTLKPEGFVVKAKSKKIPLGGIPSPST
modifications: Chimeric Cytochrome P450 heme group sequence from Bacillus megaterium and Bacillus subtilis
notes: CYP102A1 heme domain with residues 50-140 from CYP102A2
B3: Chimera 65-256: CYP102A1 heme domain with residues 65-256 from CYP102A2 (protein)
chain: TIKEMPQPKTFGELKNLPLLNTDKPVQALMKIADELGEIFKFEAPGRVTRYLSSQRLIKEACDEERFDKSIEGALEKVRAFSGDGLATSWTHEPNWRKAHNILMPTFSQRAMKDYHEKMVDIAVQLIQKWARLNPNEAVDVPGDMTRLTLDTIGLCGFNYRFNSYYRETPHPFINSMVRALDEAMHQMQRLDVQDKLMVRTKRQFRYDIQTMFSLVDSIIAERRANGDQDEKDLLARMLNVEDPETGEKLDDENIRFQIITFLIAGHETTSGLLSFALYFLVKNPHVLQKAAEEAARVLVDPVPSYKQVKQLKYVGMVLNEALRLWPTAPAFSLYAKEDTVLGGEYPLEKGDELMVLIPQLHRDKTIWGDDVEEFRPERFENPSAIPQHAFKPFGNGQRACIGQQFALHEATLVLGMMLKHFDFEDHTNYELDIKETLTLKPEGFVVKAKSKKIPLGGIPSPST
modifications: Chimeric Cytochrome P450 heme group sequence from Bacillus megaterium and Bacillus subtilis
notes: CYP102A1 heme domain with residues 65-256 from CYP102A2
B4: Chimera 285-341: CYP102A1 heme domain with residues 285-341 from CYP102A2 (protein)
chain: TIKEMPQPKTFGELKNLPLLNTDKPVQALMKIADELGEIFKFEAPGRVTRYLSSQRLIKEACDESRFDKNLSQALKFVRDFAGDGLATSWTHEKNWKKAHNILLPSFSQQAMKGYHAMMVDIAVQLVQKWERLNADEHIEVPEDMTRLTLDTIGLCGFNYRFNSFYRDQPHPFITSMVRALDEAMNKLQRANPDDPAYDENKRQFQEDIKVMNDLVDKIIADRKASGEQSDDLLTHMLNGKDPETGEPLDDENIRYQIITFLIAGHETTSGLLSFALYFLVKNPDKLKKAYEEVDRVLTDAAPTYKQVLELTYIRMILNESLRLWPTAPAFSLYPKEDTVIGGEYPLEKGDELMVLIPQLHRDKTIWGDDVEEFRPERFENPSAIPQHAFKPFGNGQRACIGQQFALHEATLVLGMMLKHFDFEDHTNYELDIKETLTLKPEGFVVKAKSKKIPLGGIPSPST
modifications: Chimeric Cytochrome P450 heme group sequence from Bacillus megaterium and Bacillus subtilis
notes: CYP102A1 heme domain with residues 285-341 from CYP102A2
B5: Chimera 277-365: CYP102A1 heme domain with residues 277-365 from CYP102A2 (protein)
chain: TIKEMPQPKTFGELKNLPLLNTDKPVQALMKIADELGEIFKFEAPGRVTRYLSSQRLIKEACDESRFDKNLSQALKFVRDFAGDGLATSWTHEKNWKKAHNILLPSFSQQAMKGYHAMMVDIAVQLVQKWERLNADEHIEVPEDMTRLTLDTIGLCGFNYRFNSFYRDQPHPFITSMVRALDEAMNKLQRANPDDPAYDENKRQFQEDIKVMNDLVDKIIADRKASGEQSDDLLTHMLNGKDPETGEPLDDENIRYQIITFLIAGHETTSGLLSFATYFLLKHPDKLKKAYEEVDRVLTDAAPTYKQVLELTYIRMILNESLRLWPTAPAFSLYPKEDTVIGGKFPITTNDRISVLIPQLHRDRDIWGDDVEEFRPERFENPSAIPQHAFKPFGNGQRACIGQQFALHEATLVLGMMLKHFDFEDHTNYELDIKETLTLKPEGFVVKAKSKKIPLGGIPSPST
modifications: Chimeric Cytochrome P450 heme group sequence from Bacillus megaterium and Bacillus subtilis
notes: CYP102A1 heme domain with residues 277-365 from CYP102A2

How the values were obtained:
Mammalian P450 = conditions: cited from earlier work
[1] = Peroxygenase substrate activity profile; format: biochemical; conditions: 20 mM H2O2
Protocol: The chimeras were assayed for hydroxylation of p-nitrophenoxydodecanoic acid (12-pNCA), a fatty acid analog that is hydroxylated by CYP102A1 and CYP102A2 to yield p-nitrophenolate (Schwaneberg et al., Anal Biochem 269,359-366 (1999)). […] When hydroxylation rates for the parent CYP102 enzymes were monitored using the maximum soluble concentrations of these substrates, activity could only be detected on 2-phenoxy-ethanol.
Chimeras were assayed for peroxygenase activity on 12-pNCA, 2-phenoxy -ethanol and allyloxy-benzene. […] Rates are reported in nmol product/nmol P450/minute. […] Those with no activity include 65-256 and 277-365. Those with new activity include 165-256, 191-335, and 43-135.
This Example provides one method by which peroxygenase activity of a P450 enzyme may be characterized. First order rates for p-nitrophenolate accumulation were determined using 1 μM enzyme, 20 mM H2O2, 250 μM 12-pNCA and 0.5% dimethyl sulfoxide (DMSO) in 100 mM Tris-HCl (pH 8.2) at room temperature. Enzyme, substrate, buffer and DMSO were combined in a cuvette and zeroed at 410 nm. Reaction mixtures were incubated for 4 minutes and initiated by the addition of H2O2 to a final concentration of 20 mM. Initial rates were determined by monitoring the accumulation of p-nitrophenolate at 410 nm, and data from the first six seconds were used to determine initial rates. […] The extinction coefficient of p-nitrophenolate is 13,200 M^−1cm^−1 (Schwaneberg et al., Anal Biochem 269:359-366 (1999)).
Rates on 2-phenoxy-ethanol and allyloxy-benzene were determined using 2 μM enzyme, 20 mM H2O2, 1% DMSO, and 1% acetone in 100 mM N-[2-hydroxyethyl]piperazine-N′-[3-propanesulfonic acid] (Epps) (pH 8.2) at room temperature. Substrate concentrations for 2-phenoxy-ethanol (100 mM) and allyloxy benzene (50 mM) maintained saturation. Reactions were initiated by the addition of H2O2 and quenched at appropriate times using an equal volume of a solution containing 4M urea and 100 mM NaOH. 120 μl of 0.6% 4-AAP was added, followed by mixing and addition of 120 μl of 0.6% potassium persulfate. Color was allowed to develop for 20 minutes before absorbance was read at 500 nm. Rates were determined from the linear region of the time course. The major products were determined by GC/MS to be the hemiacetal, which decomposes to phenol. The extinction coefficient for the 4-AAP/phenol complex was determined to be 4,800 M^−1cm^−1. The results can be seen in FIG. 4.

[2] = Thermostability (loss of Soret band at increasing temperatures); format: physicochemical; conditions: cell extracts heated 10 minutes
Protocol: Thermostability was assayed by monitoring the loss of the Soret band at increasing temperatures. […] However, thermostability may be important for retention of catalytic activity: the two chimeras that lacked peroxygenase activity were also the least thermostable.
Cell extracts were heated in a thermocycler for 10 minutes at various temperatures, followed by cooling to 4° C. Extracts were centrifuged for 5 minutes at 3500×g to remove any precipitates. Carbon monoxide reduced difference spectroscopy was used to quantitate the amount of P450. The reduction of the carbon monoxide peak was monitored over a range of temperatures.

[3] = Peroxidase activity with ABTS and H2O2; format: biochemical; conditions: for Peroxidase activity: 10 mM ABTS, 20 mM H2O2, pH 5.0, activities <0.2 not detectable (N.D.); for peroxidase activity relative to parents: ABTS
Text: P450s can reduce peroxide to water (and a proton) using a mechanism similar to that of peroxidases, although the intrinsic rate for P450s is many orders of magnitude slower. (Mansuy, D., Comp Biochem Physiol C Pharmacol Toxicol Endocrinol 121, 5-14 (1998)). It has been proposed that the earliest P450 function may have been as a peroxidase. (Gotoh, O., Cytochrome P450, 2nd Edition, pp. 255-272 (1993)). To investigate how recombination affects P450 peroxidase activity, the colorimetric substrate 2,2′-azino-bis(3-ethylbenzothiazoline-6-sulfonate) (ABTS) was used to monitor this reaction (Childs et al., Biochem J 145,93-103 (1975)).
This example provides an example of how one can measure peroxidase activity. Initial rates of peroxidase activity were measured by monitoring the accumulation of the radical cation of ABTS at 414 nm (Childs et al., Biochem J., 145:93-103 (1975)). Enzyme (1 μM) was mixed with 10 mM ABTS in 200 mM phosphate buffer (pH 5.0) in a cuvette at room temperature. Samples were zeroed and reactions were initiated with the addition of H2O2 to a concentration of 20 mM. The absorbance at 414 nm was monitored for 5 minutes. Rates were determined from the steepest portion of the time course. An extinction coefficient of […] for ABTS was used.

Molecule | Mammalian P450 (main mammalian P450 responsible for breakdown) (Mammalian P450) | substrate activity profile relative to parents [1] | Tm [2] [°C] | Peroxidase activity [3] | peroxidase activity relative to parents [3]
Nc1ccc(-c2ccccc2)cc1 [4-aminobiphenyl] | CYP1A2 |  |  |  | 
O=C(O)Cc1ccccc1Nc1c(Cl)cccc1Cl [Diclofenac] | CYP2C9 |  |  |  | 
Nc1c2c(nc3ccccc13)CCCC2 [Tacrine, 9-amino-1,2,3,4-tetrahydroacridine hydrochloride hydrate] | CYP1A2 |  |  |  | 
CCCCNC(=O)NS(=O)(=O)c1ccc(C)cc1 [Tolbutamide] | CYP2C9 |  |  |  | 
COc1ccc(C(c2ccc(OC)cc2)C(Cl)(Cl)Cl)cc1 [methoxychlor] | CYP2B6 |  |  |  | 
B1 |  | parent-like profiles | 47 | 34.3 nmol product/nmol P450/min | significantly higher peroxidase activities
B2 |  | parent-like profiles | 52 | 10.4 nmol product/nmol P450/min | significantly higher peroxidase activities
B3 |  | no activity | 36 |  | no detectable peroxidase activity
B4 |  | parent-like profiles | 53 | 2.1 nmol product/nmol P450/min | 
B5 |  | no activity | 39 |  | no detectable peroxidase activity
